Data as given in patent US20250057968A1, “ANTI-DLL3 ANTIBODY AND PHARMACEUTICAL USE THEREOF, AND ANTIBODY-DRUG CONJUGATE CONTAINING ANTI-DLL3 ANTIBODY” (Jiangsu Hengrui Pharmaceuticals Co., Ltd., priority 2021, published 2025).

T1: Human DLL3 full-length protein on cells (human, UniProt Q9NYJ7 27-618)
T1 construct: H1184 and DMS53 express DLL3 themselves; The cell line is named under assay; also called H1184 cells; DLL3/H82
T1 sequence: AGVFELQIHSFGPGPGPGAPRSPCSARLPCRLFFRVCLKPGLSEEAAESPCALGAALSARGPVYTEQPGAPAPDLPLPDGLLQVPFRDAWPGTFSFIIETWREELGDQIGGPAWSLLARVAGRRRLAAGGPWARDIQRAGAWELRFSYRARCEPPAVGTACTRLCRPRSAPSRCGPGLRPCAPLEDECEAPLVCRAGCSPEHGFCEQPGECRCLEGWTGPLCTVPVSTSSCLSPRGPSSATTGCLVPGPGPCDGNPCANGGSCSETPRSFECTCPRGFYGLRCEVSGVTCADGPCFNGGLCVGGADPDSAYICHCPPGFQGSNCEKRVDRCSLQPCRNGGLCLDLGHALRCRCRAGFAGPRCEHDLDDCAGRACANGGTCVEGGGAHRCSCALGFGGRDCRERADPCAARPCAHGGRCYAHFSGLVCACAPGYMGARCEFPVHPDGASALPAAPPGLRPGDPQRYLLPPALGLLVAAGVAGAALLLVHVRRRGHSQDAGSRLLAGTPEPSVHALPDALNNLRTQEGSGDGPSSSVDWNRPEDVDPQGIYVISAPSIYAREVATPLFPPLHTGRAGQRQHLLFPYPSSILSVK

T2: Cynomolgus monkey DLL3 full-length protein on CHO-s cells (cynomolgus monkey, UniProt Q9NYJ7 27-618 (human entry))
T2 construct: also called cynoDLL3/CHO-s
T2 chain: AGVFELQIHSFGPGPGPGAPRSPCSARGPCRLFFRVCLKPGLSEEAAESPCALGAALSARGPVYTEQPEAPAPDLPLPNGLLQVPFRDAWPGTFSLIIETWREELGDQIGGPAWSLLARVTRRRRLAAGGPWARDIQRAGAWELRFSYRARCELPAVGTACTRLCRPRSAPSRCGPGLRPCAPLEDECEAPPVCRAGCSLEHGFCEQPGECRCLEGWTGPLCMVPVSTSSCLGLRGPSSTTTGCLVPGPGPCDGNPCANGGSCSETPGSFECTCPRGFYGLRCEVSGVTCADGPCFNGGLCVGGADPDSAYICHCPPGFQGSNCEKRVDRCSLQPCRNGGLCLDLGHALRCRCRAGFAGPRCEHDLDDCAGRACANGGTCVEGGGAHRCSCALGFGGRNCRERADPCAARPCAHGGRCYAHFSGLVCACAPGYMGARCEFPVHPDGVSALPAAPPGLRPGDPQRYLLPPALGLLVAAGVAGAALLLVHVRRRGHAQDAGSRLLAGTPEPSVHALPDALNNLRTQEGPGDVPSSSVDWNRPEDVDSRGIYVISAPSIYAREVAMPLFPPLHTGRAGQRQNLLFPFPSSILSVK

B1: Hu6 (antibody, human IgG1, kappa, V domains shown)
VH: EVQLVQSGSELKKPGASVKVSCKASGYTFTDYYMNWVRQAPGQGLEWMGIINPYSGVTIYNHKFKGRFALSVDKSSNTAYLQISSLKAEDTAVYYCARQDSLLDYAMDYWGQGTTVTVSS
VL: DIQMTQSPSSLSASVGDRVTITCHASQGISGNMGWLQQKPGKAPKGLIYHGANLEDGVPSRFSGSGSGADYTLTISSLQPEDFADYYCVQYAQFPYTFGGGTKVEIKR
notes: also called hAb6L4H12
B2: Hu100 (antibody, human IgG1, kappa, V domains shown)
VH: EVQLVESGGGLVKPGGSLRLSCAASGFTFSDSGMHWIRQAPGKGLEWVSYISSGSSTIHYADTVKGRFTISRDNAKNSLYLQMNSLRAEDTAVYYCASPLYYYGRSYNAVAYWGQGTTVTVSS
VL: DIQMTQSPSSLSASVGDRVTITCHASQNINVWLSWYQQKPGKVPKLLIYKASDLHTGVPSRFSGSGSGTDFTLTISSLQPEDVATYYCQQGQSYPLTFGGGTKVEIKR
notes: also called hAb100L1H1

How the values were obtained:
[1] = target: cynomolgus monkey DLL3 (KACTUS, DLL-RM103) (cynomolgus monkey); experiment: SPR (Biacore 8K), antibody captured on Protein A chip, 1:1 fit
[2] = target: T3, hDLL3(ECD)-strep twin, biotinylated (human, UniProt Q9NYJ7 27-492, biotinylated (site not stated)); experiment: ELISA, biotinylated antigen on streptavidin plate
T3 construct: also called Biotinylated DLL3 antigen; Biotinylated DLL3-Strep
Protocol: Streptavidin (abcam, ab136200, 1 μg/mL) was plated at 100 μL/well, and the plate was incubated overnight at 4° C. The plate was washed 3 times with 250 μL of PBST solution (PBS containing 0.1% Tween 20) per well. The plate was blocked with 250 μL of 5% milk per well at 37° C. for 2 h. The plate was washed 3 times with 250 μL of PBST solution per well. Biotinylated DLL3 antigen (1 μg/mL) (SEQ ID NO: 9) was added, and the plate was incubated at 37° C. for 1 h. The plate was washed 3 times with 250 μL of PBST solution per well. […] The plate was washed 6 times with 250 μL of PBST solution per well. […] The plate was washed 6 times with 250 μL of PBST solution per well. TMB (KPL, 5120-0077) substrate solution was added at 100 μL/well, and color development was allowed at room temperature for 5-10 min. 1 M H₂SO₄ was added at 100 μL/well to stop the color development, and microplate reader (Molecular Devices, VERSA max) readings at 450 nm were taken.

[3] = target: T1, Human DLL3 full-length protein on cells; experiment: FACS on H1184 cells
Protocol: (§1) Cells of the DLL3-expressing small cell lung cancer cell lines H1184 (ATCC, Cat. No. CRL-5858), DLL3/H82, cynoDLL3/CHO-s, and RatDLL3/CHO-s were suspended at 1×10^6/mL in FACS buffer (1% BSA+pH 7.4 PBS), and the cell suspensions were added to a 96-well round-bottom plate (Corning, 3795) at 100 μL/well. The plate was centrifuged at 300 g for 5 min, and the supernatant was removed. Different concentrations of test antibodies were added at 100 μL/well. The plate was incubated in the dark in a refrigerator at 4° C. for 1 h. After 3 washes by centrifugation at 300 g, working concentrations of APC anti-human IgG Fc (BioLegend, 410712) or PE F(ab′)2-goat anti-human IgG (invitrogen, H10104) were added. The plate was incubated in the dark in a refrigerator at 4° C. for 40 min. After 3 washes by centrifugation at 300 g, the geometric mean fluorescence intensity was measured on an Invitrogen flow cytometer, and the EC50 values of the antibodies in binding to DLL3-expressing cells were calculated.

[4] = target: T2, Cynomolgus monkey DLL3 full-length …; experiment: FACS on cynoDLL3/CHO-s cells
Protocol: as §1

| Binder | Kd [1] [nM] | EC50 [2] [nM] | EC50 [3] [nM] | Emax [3] | EC50 [4] [nM] | Emax [4] |
| --- | --- | --- | --- | --- | --- | --- |
| B1 | 1.31 | 0.04 | 0.06 | 2070 | 0.32 | 1760 |
| B2 | 1.11 | 0.05 | 0.15 | 2110 | 0.55 | 2080 |
